# Laboratory results from patent US20130071393A1 (published 2013).
# T1: GDF11 (UniProt O95390 299-407)
# T1 construct: Ligand used in the reporter gene and BiaCore assays; construct not described; also called Growth and Differentiation Factor-11; BMP11
# T1 sequence (looked up): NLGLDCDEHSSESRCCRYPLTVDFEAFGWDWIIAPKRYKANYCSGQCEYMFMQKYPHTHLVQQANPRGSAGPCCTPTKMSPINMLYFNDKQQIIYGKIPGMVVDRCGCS
# T2: Activin A (UniProt P08476 311-426)
# T2 construct: also called ActA
# T2 sequence (looked up): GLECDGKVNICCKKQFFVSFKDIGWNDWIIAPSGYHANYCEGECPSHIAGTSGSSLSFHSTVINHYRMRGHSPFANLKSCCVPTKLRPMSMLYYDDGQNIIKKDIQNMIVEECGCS
# Legend:
# [1] = target: T1, GDF11; assay: cell-based or functional assay
# [2] = target: T2, Activin A; assay: cell-based or functional assay
# [3] = target: T1, GDF11; assay: BiaCore; ligand coupled to the device, receptor-Fc flowed over
# [4] = target: T2, Activin A; assay: as above
# [5] = target: T1, GDF11; assay: BiaCore; ligand coupled, receptor-Fc flowed over; legend: -- = <⅕ WT binding
Molecule,binding result [3],binding result [4],further results
ActRIIB-Fc A64 20-134 (from UniProt Q13705 20-134) (Fc fusion),–,–,"KI, GDF11 Inhibition Activity (cell based assay) [1]: 1000 nM; KI, Activin Inhibition Activity (cell based assay) [2]: 1000 nM"
"Soluble ActRIIB-Fc D54A (Fc fusion, UniProt Q13705 19-119, looked up, T0019 variant; whole entry named; not shown: Fc domain) SGRGEAETRECIYYNANWELERTNQSGLERCEGEQAKRLHCYASWANSSGTIELVKKGCWLDDFNCYDRQECVATEENPQVYFCCCEGNFCNERFTHLPEA",no binding,–,–
"Soluble ActRIIB-Fc D80M (Fc fusion, UniProt Q13705 19-119, looked up, T0019 variant; whole entry named; not shown: Fc domain) SGRGEAETRECIYYNANWELERTNQSGLERCEGEQDKRLHCYASWANSSGTIELVKKGCWLMDFNCYDRQECVATEENPQVYFCCCEGNFCNERFTHLPEA",no binding,no binding,–
"Soluble ActRIIB-Fc WT (64R) (Fc fusion, UniProt Q13705 19-119, looked up, T0019 variant; whole entry named; not shown: Fc domain) SGRGEAETRECIYYNANWELERTNQSGLERCEGEQDKRLHCYASWRNSSGTIELVKKGCWLDDFNCYDRQECVATEENPQVYFCCCEGNFCNERFTHLPEA",–,–,Kd [3]: 86 nM
"Soluble ActRIIB-Fc R56A (Fc fusion, UniProt Q13705 19-119, looked up, T0019 variant; whole entry named; not shown: Fc domain) SGRGEAETRECIYYNANWELERTNQSGLERCEGEQDKALHCYASWANSSGTIELVKKGCWLDDFNCYDRQECVATEENPQVYFCCCEGNFCNERFTHLPEA",no binding,no binding,–
"Soluble ActRIIB-Fc D80A (Fc fusion, UniProt Q13705 19-119, looked up, T0019 variant; whole entry named; not shown: Fc domain) SGRGEAETRECIYYNANWELERTNQSGLERCEGEQDKRLHCYASWANSSGTIELVKKGCWLADFNCYDRQECVATEENPQVYFCCCEGNFCNERFTHLPEA",no binding,no binding,–
"Soluble ActRIIB-Fc D80I (Fc fusion, UniProt Q13705 19-119, looked up, T0019 variant; whole entry named; not shown: Fc domain) SGRGEAETRECIYYNANWELERTNQSGLERCEGEQDKRLHCYASWANSSGTIELVKKGCWLIDFNCYDRQECVATEENPQVYFCCCEGNFCNERFTHLPEA",–,no binding,binding relative to WT [5]: < 0.2 fold
"Soluble ActRIIB-Fc K74F (Fc fusion, UniProt Q13705 19-119, looked up, T0019 variant; whole entry named; not shown: Fc domain) SGRGEAETRECIYYNANWELERTNQSGLERCEGEQDKRLHCYASWANSSGTIELVFKGCWLDDFNCYDRQECVATEENPQVYFCCCEGNFCNERFTHLPEA",–,no binding,binding relative to WT [5]: < 0.2 fold
"Soluble ActRIIB-Fc D80G (Fc fusion, UniProt Q13705 19-119, looked up, T0019 variant; whole entry named; not shown: Fc domain) SGRGEAETRECIYYNANWELERTNQSGLERCEGEQDKRLHCYASWANSSGTIELVKKGCWLGDFNCYDRQECVATEENPQVYFCCCEGNFCNERFTHLPEA",no binding,no binding,–
"Soluble ActRIIB-Fc D80R (Fc fusion, UniProt Q13705 19-119, looked up, T0019 variant; whole entry named; not shown: Fc domain) SGRGEAETRECIYYNANWELERTNQSGLERCEGEQDKRLHCYASWANSSGTIELVKKGCWLRDFNCYDRQECVATEENPQVYFCCCEGNFCNERFTHLPEA",no binding,no binding,–
"Soluble ActRIIB-Fc K55A (Fc fusion, UniProt Q13705 19-119, looked up, T0019 variant; whole entry named; not shown: Fc domain) SGRGEAETRECIYYNANWELERTNQSGLERCEGEQDARLHCYASWANSSGTIELVKKGCWLDDFNCYDRQECVATEENPQVYFCCCEGNFCNERFTHLPEA",no binding,–,–
"Soluble ActRIIB-Fc E37A (Fc fusion, UniProt Q13705 19-119, looked up, T0019 variant; whole entry named; not shown: Fc domain) SGRGEAETRECIYYNANWALERTNQSGLERCEGEQDKRLHCYASWANSSGTIELVKKGCWLDDFNCYDRQECVATEENPQVYFCCCEGNFCNERFTHLPEA",no binding,no binding,–
"Soluble ActRIIB-Fc W78A (Fc fusion, UniProt Q13705 19-119, looked up, T0019 variant; whole entry named; not shown: Fc domain) SGRGEAETRECIYYNANWELERTNQSGLERCEGEQDKRLHCYASWANSSGTIELVKKGCALDDFNCYDRQECVATEENPQVYFCCCEGNFCNERFTHLPEA",no binding,no binding,–
"Soluble ActRIIB-Fc D80F (Fc fusion, UniProt Q13705 19-119, looked up, T0019 variant; whole entry named; not shown: Fc domain) SGRGEAETRECIYYNANWELERTNQSGLERCEGEQDKRLHCYASWANSSGTIELVKKGCWLFDFNCYDRQECVATEENPQVYFCCCEGNFCNERFTHLPEA",no binding,no binding,–
"Soluble ActRIIB-Fc D80N (Fc fusion, UniProt Q13705 19-119, looked up, T0019 variant; whole entry named; not shown: Fc domain) SGRGEAETRECIYYNANWELERTNQSGLERCEGEQDKRLHCYASWANSSGTIELVKKGCWLNDFNCYDRQECVATEENPQVYFCCCEGNFCNERFTHLPEA",no binding,no binding,–
"Soluble ActRIIB-Fc L79A (Fc fusion, UniProt Q13705 19-119, looked up, T0019 variant; whole entry named; not shown: Fc domain) SGRGEAETRECIYYNANWELERTNQSGLERCEGEQDKRLHCYASWANSSGTIELVKKGCWADDFNCYDRQECVATEENPQVYFCCCEGNFCNERFTHLPEA",no binding,–,–
"Soluble ActRIIB-Fc K74Y (Fc fusion, UniProt Q13705 19-119, looked up, T0019 variant; whole entry named; not shown: Fc domain) SGRGEAETRECIYYNANWELERTNQSGLERCEGEQDKRLHCYASWANSSGTIELVYKGCWLDDFNCYDRQECVATEENPQVYFCCCEGNFCNERFTHLPEA",–,no binding,binding relative to WT [5]: < 0.2 fold
"Soluble ActRIIB-Fc K74I (Fc fusion, UniProt Q13705 19-119, looked up, T0019 variant; whole entry named; not shown: Fc domain) SGRGEAETRECIYYNANWELERTNQSGLERCEGEQDKRLHCYASWANSSGTIELVIKGCWLDDFNCYDRQECVATEENPQVYFCCCEGNFCNERFTHLPEA",–,no binding,binding relative to WT [5]: < 0.2 fold
"Soluble ActRIIB-Fc D80K (Fc fusion, UniProt Q13705 19-119, looked up, T0019 variant; whole entry named; not shown: Fc domain) SGRGEAETRECIYYNANWELERTNQSGLERCEGEQDKRLHCYASWANSSGTIELVKKGCWLKDFNCYDRQECVATEENPQVYFCCCEGNFCNERFTHLPEA",no binding,no binding,–
"Soluble ActRIIB-Fc K74A (Fc fusion, UniProt Q13705 19-119, looked up, T0019 variant; whole entry named; not shown: Fc domain) SGRGEAETRECIYYNANWELERTNQSGLERCEGEQDKRLHCYASWANSSGTIELVAKGCWLDDFNCYDRQECVATEENPQVYFCCCEGNFCNERFTHLPEA",–,–,Kd [3]: 5.3 nM; Kd [4]: 4.35 nM
